Patent publication US20180280528A1, “ANTIFOLATE CONJUGATES FOR TREATING INFLAMMATION” (ENDOCYTE, INC., priority 2015, published 2018)

What was measured:
[1] = Release of aminopterin in dog hepatic cytosol; type: in vitro ADME; conditions: 5% dog liver cytosol, 1 hour; for pH dependence of aminopterin release from the conjugate: pH 4.5, 6.0, 7.4, 37° C.
Protocol: EC2319 and EC1669 were incubated in 5% rat, dog, and human hepatic cytosol at different pH's to look at release of aminopterin from these conjugates. Liver cytosols from male Sprague-Dawley rats (Lot No. 1110428), male beagle dogs (Lot no. 1310024), and male humans (Lot No. 0710493), all containing 10 mg/mL protein, were obtained from Xenotech LLC (Lenexa, Kans.). These were diluted 20× in either 0.5 M sodium acetate buffer, pH 4.5, 0.5 M sodium acetate buffer, 6.0, or 0.5 M potassium phosphate buffer, pH 7.4 in a final volume of 500 μL. Reactions were initiated by the addition of 1 μL of either EC2319 or EC1669 and the reaction mixtures incubated at 37° C. for 1 hour. At the end of the incubation, a 100 μL aliquot was withdrawn into a cluster tube and the reaction was terminated by the addition of 5 μL of stabilizer solution (containing 8.5 mg/ml N-Maleoyl-β-alanine, 20 mg/mL mannitol and 0.075% acetic acid) and 100 μL of acetonitrile containing d5-aminopterin. The tubes were vortexed and then centrifuged at 4000 rpm for 10 minutes (Eppendorf centrifuge 5810R). 150 μL of the supernatant was transferred to 96-well plates and the acetonitrile evaporated off under nitrogen at 35° C. for 5 minutes. The extract was diluted with 50 μL of mobile phase A. The plate was vortexed on a VX-2500 multi-tube vortexer (VWR International, Radnor, Pa.) and the extract analyzed by LC-MS/MS.

[2] = Plasma protein binding by ultrafiltration, human plasma; type: in vitro ADME; conditions: 500 nM
Protocol: EC2319 and EC1669 plasma protein binding was evaluated by ultra filtration using VWR 30K MWCO modified PES filters. 250 μL of 500 nM EC2319 or EC1669 in K3EDTA plasma incubated at 37° C. was added to the upper filter vessel. 50 μL was immediately removed as the donor plasma sample and aliquoted into a clean 1.2 mL plate. […] An aliquot of […] plasma ultrafiltrate was then added to the 1.2 mL plate as the receiver sample. To each plasma sample, 50 μL of plasma ultrafiltrate was added, and each ultrafiltrate sample received 50 μL of plasma to mitigate matrix effects. N-Maleoyl-β-alanine, mannitol, and acetic acid were added at the end of each experiment to stabilize the samples prior to LC-MS/MS analysis.

[3] = Incubation with THP-1 FRβ cell lysates; type: in vitro ADME, human; conditions: THP-1 FRβ lysate, pH 4.5, 37° C., 2 hours
Protocol: (§1) To 100 μL AIA rat macrophage, RAW264.7 or THP-1 FRβ cell lysates (each containing 10 million cells/mL 0.1 M sodium acetate, Ph 4.5) was added 2 μL of a 50 μM solution of EC2319 or EC1669 (Endocyte, Inc.). The solutions were incubated at 37° C. in a heat block (VWR International, Radnor, Pa.) for 2 hours. The reaction was terminated by the addition of 5 µL of stabilizer solution and 100 μL of acetonitrile containing d5-aminopterin (Endocyte, Inc.). The rest of the workup is as described above.

[4] = Incubation with RAW264.7 cell lysates; type: in vitro ADME, mouse; conditions: RAW264.7 lysate, pH 4.5, 37° C., 2 hours
Protocol: as §1

Pharmacokinetics in rats = conditions: female, Lewis, rat, in vivo, sc, 500 nmol/kg; for AUC(0-inf): AUCinf
Protocol: Each rat was used for collection of blood samples for a maximum of 4 time points. […] The samples were centrifuged for 3 minutes at 2000×g (Eppendorf 5417R centrifuge) to obtain plasma. The plasma samples were stored at −80° C. until LC-MS/MS analysis.
LC-MS/MS analysis utilized a Waters Acquity UPLC system paired with a Waters Quattro Premier XE tandem quadrupole mass spectrometer operating in ESI positive mode. Prior to injection, K3EDTA plasma samples were processed using a Phenomenex Strata X-A solid phase extraction (SPE) plate. All plasma samples were fortified with N-Maleoyl-β-alanine, mannitol, and acetic acid. Briefly, 50 μL of plasma diluted with 50 μL of internal standard solution and 500 μL 1000:4:1.5 water:ammonium hydroxide:formic acid was mixed and loaded onto a preconditioned Strata X-A SPE plate. Aqueous and organic washes were then applied followed by elution of all analytes with 300:200:7.5 methanol:water:formic acid. The samples were evaporated until approximately 30 μL remained in all wells and 30 μL of 9:1 water:ammonium hydroxide was then added. Finally, the plate was sealed, mixed, and centrifuged prior to transfer to the 2-8° C. Acquity autosampler. Note: During EC1669 analysis, EC0470 was converted to a hydrazone product for bioanalysis. Acetone (500 μL) was added to all samples after the first evaporation step followed by sealing all wells and heating at 50° C. for one hour. After this step, the acetone was evaporated and the extraction completed as described above.
A 10 μL sample volume was applied to the Waters BEH Shield RP18 100×2.1 mm, […] UPLC column operating at a flow rate of 0.4 mL/min while being maintained at 45° C. A gradient between mobile phase A (1000:4:1.5 water:ammonium hydroxide:formic acid) and mobile phase B (acetonitrile) was used to separate the analytes. The gradient was held at 2% B for the first 30 seconds of the chromatographic run followed by increasing to 20% B by 2.5 minutes. A rapid gradient from 60-90% B is then used to clean the column prior to equilibration at 2% B to complete the 4 minute run cycle.
For EC1669 MS/MS analysis, EC1669 and its known major metabolites, EC1886 and […], were optimized and monitored. […] In all cases, internal standard response was used to generate response ratios for each analyte. When calibrated, data was regressed using MassLynx 4.1 software. The table below lists transitions for analytes and internal standards monitored for LC-MS/MS bioanalysis.

Structure (SMILES): N=c1[nH]c(N)nc2ncc(CNc3ccc(C(=O)N[C@@H](CCC(=O)NNC(=O)OCCSSC[C@@H](NC(=O)[C@H](CCC(=O)NC[C@H](O)[C@@H](O)[C@H](O)[C@H](O)CO)NC(=O)[C@@H](CCC(=O)O)NC(=O)[C@H](CCC(=O)NC[C@H](O)[C@@H](O)[C@H](O)[C@H](O)CO)NC(=O)[C@@H](CCC(=O)O)NC(=O)[C@H](CCC(=O)NC[C@H](O)[C@@H](O)[C@H](O)[C@H](O)CO)NC(=O)CC[C@H](NC(=O)c4ccc(NCc5cnc6nc(N)[nH]c(=O)c6n5)cc4)C(=O)O)C(=O)O)C(=O)O)cc3)nc12 [EC1669, reference compound]
- pH dependence of aminopterin release from the conjugate [1]: highest at pH 4.5
- plasma protein binding [2]: high plasma protein binding
- aminopterin release [3]: greater from EC1669 than from EC2319
- aminopterin release [4]: greater from EC1669 than from EC2319
- Cmax (Pharmacokinetics in rats): 472 nM
- Tmax (Pharmacokinetics in rats): 30 min
- half-life (Pharmacokinetics in rats): 27.8 min
- AUC(0-inf) (Pharmacokinetics in rats; rat plasma, EC1669 dosed SC 500 nmol/kg): 0.86 µM·h
- AUC(0-t) (Pharmacokinetics in rats; AUClast, rat plasma, EC1669 dosed SC 500 nmol/kg): 0.857 µM·h

Structure (SMILES): COC(=O)[C@H](CSSC(C)(C)[C@H](NC(=O)[C@H](CCC(=O)NC[C@H](O)[C@@H](O)[C@H](O)[C@H](O)CO)NC(=O)[C@H](CCC(=O)O)NC(=O)[C@H](CCC(=O)NC[C@H](O)[C@@H](O)[C@H](O)[C@H](O)CO)NC(=O)[C@H](CCC(=O)O)NC(=O)[C@H](CCC(=O)NC[C@H](O)[C@@H](O)[C@H](O)[C@H](O)CO)NC(=O)CC[C@H](NC(=O)c1ccc(NCc2cnc3nc(N)[nH]c(=O)c3n2)cc1)C(=O)O)C(=O)O)NC(=O)CC[C@H](NC(=O)c1ccc(NCc2cnc3nc(N)nc(N)c3n2)cc1)C(=O)O [EC2319]
- magnitude of aminopterin release ([1]; 37° C.): lower than that from EC1669
- pH dependence of aminopterin release from the conjugate [1]: highest at pH 4.5
- plasma protein binding [2]: higher plasma protein binding than did EC1669
- aminopterin release [3]: aminopterin release was observed
- aminopterin release [4]: aminopterin release was observed
- AUC(0-inf) (Pharmacokinetics in rats; rat plasma, EC2319 dosed SC 500 nmol/kg): 1.02 µM·h
